Assay results published in a protein production outcome set (Wang et al. 2014).

Assay: label from the status in PepcDB records

Sequence | protein production
MEKVTFVRIADLENHNNDGGFWTVIDGKVYDIKDFQTQSLTENSILAQFAGEDPVVALEAALQFEDTRESMHAFCVGQYLEPDQEGVTIP | not failed
MEKYEELFARIKEKAKLIDEKIFELIPEKDPRVLYEAARHYPLAGGKRVRPFVVLTSTEAVGGDPLRAIYPAVAIELIHNYSLVHDDIMDMDETRRGKPTVHRIWGVNMAILAGDLLFSKAFEAVARAEIPPEKKARVLEVIVKASNELCEGQARDLEFEKKSTVTIEEYMEMISGKTGALFEASAKVGGIIGTDNEEYIKALSSWGRNVGIAFQIWDDVLDLIADEKKLGKPVGSDIRKGKKTLIVAHFFENADEKDKQRFLKIFGKYAGDVKGRGIIEEDIKSDVMEAIDLLKKYGSIDYAAEIAKDMIKKANEALRILPKSKARMDLELLAKFIVEREY | not failed
MEKYIFWVTAIFQIGVFALMLYYLFIALFGFYKKKDTKTFEPQKKFAMLVAAHNEEVVIENLVESLKHLDYPKELYDIFVIADNCTDNTAKIARAAGANVFERFNKEKRGKGFALEWMFDKIFKMDTHYDGIAVFDADNLVDKNFLKEMNNKMCEGFKVVQGYIDSKNPQDSWITESYAIAFTSANRMLQLAKSNIGLSAQIGGTGFVIDTATLKKLGWGATCLTEDLEFSCKLILNGEKVGWAHDAIIYDEKPLTLKASWNQRKRWMQGFADVATRYGMKLLKKSIKDRSLVAFDCTLYVMQPFVTLATGLAGLLTFVQIRAVDGLGIFVISYLFNATVWQLFCVFQFLLTPFALLFDKKMSGKLFVVLGLYACNVFIQPYLINQLGILDNIMLLTLFNVAYIGIFLIGTLLFLGKRNFQIFYRYLIYPLYILTWIPITIQGIIDKDKKEWSHTKHVRQIGIYEV | failed
MELDGKAPSHRNLNVQTWSTAEGAKVLFVEARELPMFDLRLIFAAGSSQDGNAPGVALLTNAMLNEGVAGKDVGAIAQGFEGLGADFGNGAYKDMAVASLRSLSAVDKREPALKLFAEVVGKPTFPADSLARIKNQMLAGFEYQKQNPGKLASLELMKRLYGTHPYAHASDGDAKSIPPITLAQLKAFHAKAYAAGNVVIALVGDLSRSDAEAIAAQVSAALPKGPALAKIEQPAEPKASIGHIEFPSSQTSLMLAQLGIDRDDPDYAAVSLGNQILGGGGFGTRLMSEVREKRGLTYGVYSGFTPMQARGPFMINLQTRAEMSEGTLKLVQDVFAEYLKNGPTQKELDDAKRELAGSFPLSTASNADIVGQLGAMGFYNLPLSYLEDFMRQSQELTVEQVKAAMNKHLNVDKMVIVSAGPTVAQKPLEHHHHHH | not failed
MELISIIVPVYNGEIYIGRCLDSILEQTYQNLEIIIIDDGSSDRTGDICEKYFLEDRRIKYFYQENRGQSVARNNGVLRCTGDWIAFLDSDDVYLPYSIEVMYNIQKATNADIVLTSIGNFNNTYNTSINSQYLKEIKLYTLEVALEEMYYGKTYGVSPLAKLYPRSNLLSNPYPEGKIHEDMDTTFKLISCASKIAVCDIVTAVVYFSDNSTTRTKFNERMLYFFEAIQNNIVFINLNFPHNTSLISAVIYNEVFGGIDICGKMIDFKLYDTVDYYRKKYRKYFKTILFNNRISVKEKVKYILFISSIRYFTIVRKIYNLRLSRNGLEHHHHHH | failed
MELKDYYAIMGVKPTDDLKTIKTAYRRLARKYHPDVSKEPDAEARFKEVAEAWEVLSDEQRRAEYDQMWQHRNDPQFNRQFHHGDGQSFNAEDFDDIFSSIFGQHARQSRQRPATRGHDIEIEVAVFLEETLTEHKRTISYNLPVYNAFGMIEQEIPKTLNVKIPAGVGNGQRIRLKGQGTPGENGGPNGDLWLVIHIAPHPLFDIVGQDLEIVVPVSPWEAALGAKVTVPTLKESILLTIPPGSQAGQRLRVKGKGLVSKKQTGDLYAVLKIVMPPKPDENTAALWQQLADAQSSFDPRKDWGKA | failed
MELKMNDINQHSFLKLGSVRHIQSEQEALEIAKEMANQLNQFARNPSYNKTVPYDQARLISEAGLTAIIVPKQFGGLGASISTLVNVVKIISSADGGVGQLLQIHFTMFRGILTGYDDEIRDQLLADVLSGKRLGNALAEVGGKDKFQHKTRVERNSEGKLILNGSKFYSTGSLLAEWISLFAGSDDGPVSILIHRDTQGVELLNDWDAMGQNNSVSGTVNFKDVVVDERYVAKRNTGGLGTVLRTGLTWPQILHAAMDTGIAKGALQGGIDYLQHHARPWVESGVDSPTHESHIIKQIGEFAVLVRSAEALLDRSAQIFEQHLANVEDEDLQTELILSVAATRSQSDHASLKISSEIFGLLGASSTLSKWNLDRFWRNARTHTTHDPIRWRLYHVGNYYLNNIPPGEYNSVLLKKQAENVTKFSK | failed
MELLKHLSQRQYIDGEWVESANKNTRDIINPYNQEVIFTVSEGTKEDAERAILAARRAFESGEWSQETAETRGKKVRAIADKIKEHREALARLETLDTGKTLEESYADMDDIHNVFMYFAGLADKDGGEMIDSPIPDTESKIVKEPVGVVTQITPWNYPLLQASWKIAPALATGCSLVMKPSEITPLTTIRVFELMEEVGFPKGTINLILGAGSEVGDVMSGHKEVDLVSFTGGIETGKHIMKNAANNVTNIALELGGKNPNIIFDDADFELAVDQALNGGYFHAGQVCSAGSRILVQNSIKDKFEQALIDRVKKIKLGNGFDADTEMGPVISTEHRNKIESYMDVAKAEGATIAVGGKRPDRDDLKDGLFFEPTVITNCDTSMRIVQEEVFGPVVTVEGFETEQEAIQLANDSIYGLAGAVFSKDIGKAQRVANKLKLGTVWINDFHPYFAQAPWGGYKQSGIGRELGKEGLEEYLVSKHILTNTNPQLVNWFSK | not failed
MELLKIDCLGKSLRLEGSLAGWQLLFWDNNLVSQKAASVDNGGLKVHQFELTQHHSQLASDSGEAQVLENKILVRLETDVVWQPFRFDYRLLVDEEVIAQGTRTEKDIERQMPEIPVTAPQKFSFVGLASLGFKLLKSAKVIKVVLAGASVAAYSWLFSFQFALALIACLVFHEYGHIRAMKYFGMKTKGIYLIPFMGGLALSDEKINTRWQDVVISIMGPTFGLLMSVGSLIAYHFTDNIFFAGLAAFNALLNLFNLLPILPLDGGHILKSISFSMNSIMGLIACVIGAAFGVYISYTLGLALLGFLLLIGSLEIVFEWRSRHQSHLLPLDRYGQIFSTIWYLATVAALVGIIWHLAGTGDDMLSLPLQILRS | failed
MELQLAIDLLNKEDAAELANKVKDYVDIVEIGTPIIYNEGLPAVKHMADNISNVKVLADMKIMDAADYEVSQAIKFGADVITILGVAEDASIKAAIEEAHKNNKQLLVDMIAVQDLEKRAKELDEMGADYIAVHTGYDLQAEGQSPLESLRTVKSVIKNSKVAVAGGIKPDTIKDIVAESPDLVIVGGGIANADDPVEAAKQCRAAIEGK | failed
MELTLALVIFVICYLLIMAETFNRAVVACLGGVLMLFVGIYPLDAAFLQYIDWHTITLLLSMMILVSITSQSGFFEYMAIRLAQKVDGRPIPLLIVVAGITAIGSAFLNNVTMVLLIVPIVLTLTNLLKLNAVPFLLTLVMASNIGGTATLIGDPPNLMIGQAVAHLSFNDFLLHLGPIVAVIFFVVLIGLILYYRRQLSVTAEDRSRLRGVDPTSYLKNRPLLIKSMTVLTLTTIGFTIQPFLPVELTSIAMAGALLLMLITQNEQDMEGVFRSVEWVTLFFFIGLFMLVGGIKEVGIIDEIAKAIIYYTEGDIPKTSLFILWGSGILSGFVDNIPFVAAMIPVILEFQEYGVGELDPLWWSLALGACLGGNATVIGATANVIVAGLAVQAKQSFSYLEFLKVGAPVALVSFLLCTVYLYIRYLIYF | failed
MELVAGSYEQVLFGFTVQRGPAKSGHQETWTPVADFTHHSHTASLSVLASNSRYVVSGSKDETIHIYDMKRKVEHGALVHHAGTVTCLKFHGNQHLISGAEDGHICIWDVKRWKCLKTFKAHRGHVTFLSIHPSGKLALSVGTDKTLRTWNLIEGRSAFIKNIKENAHIVEWSPSGGKYIVVVQNKVDVYRLGTASVSGTITNGKRISSVTFLSDSVLAVAGDEEVVRIFDCDSLECLCEFRAHENRVKDMVSFEVPDHHVLVTASNDGFIKMWTLPQDKKVPPSLLCEAKTGARLTCLTVWLDRAANGMASLPPAAEPCPDQPKTIEKESGDTVQEETSEPNSEKSDVSGDSKQPTKGNSPVTAKKRKMATMSEKKRKKKMSLTWQIPDFSSLSECPFDGILHVPVRRKYLLP | failed
MELVHGISTHFIQSKKFKTNKITVRFTAPLSLDTIAGHMLSASMLETANQMYPTSQDLRRHLASLYGTDMSTNCFRRGQSHIIELTFTYVRDEFLSRKNVLTSQILELVKETLFSPVVVDNGFDPALFEIEKKQ | failed
